Test results published in the supplement of paper PMC10724198.
± gives the standard deviation of the averaged measurements.

system: Saccharomyces cerevisiae; assay: protein stability index of tFT-peptide fusion (C-terminal peptide) (PSI (0-1 scale)); higher = more stable (slower turnover); conditions: genetic background: wild type; temperature: 30 C
Procedure: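 Multiplexed protein stability (MPS) profiling in S. cerevisiae. Random 12-aa peptides (tFT-X12 library) are fused to the C-terminus of a sfGFP-mCherry tandem fluorescent timer, after mCherry and a GGGS linker. Cells are FACS-sorted into 8 mCherry/sfGFP bins and deep-sequenced. The protein stability index (PSI) is the read-weighted bin average, scaled from 0 (unstable) to 1 (stable). Only peptides with >10 reads are reported; cells were grown at 30 °C in SC-His with glucose.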
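Note: PSI is a weighted mean of sequencing reads over stability bins, variants kept only with over 10 reads, mCherry proximal and sfGFP distal, peptide attached via GGGS linker.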

Going from KGRFTKTKLRVH to KKKKTEIKRNKT, the protein stability index rises from 0.5602 ± 0.0013 to 0.689 ± 0.026.

PVPLRPLSPPPP and NQEPRVSFCRDS are within error of each other in protein stability index: 0.68 ± 0.0099 for the first, 0.716 ± 0.044 for the second.

MESIIHPNSGIV and PSHPPRHCPPAA are within error of each other in protein stability index: 0.744 ± 0.13 for the first, 0.6628 ± 0.0024 for the second.

VRWGVVGVQGNW and DETELTQRTKRV are within error of each other in protein stability index: 0.678 ± 0.021 for the first, 0.656 ± 0.017 for the second.

PGRFVVGAGRED and KSKKRERDETKK are within error of each other in protein stability index: 0.686 ± 0.024 for the first, 0.645 ± 0.033 for the second.

WFFPPLPPPLPR and PFPPTPVRRVPL are within error of each other in protein stability index: 0.686 ± 0.04 for the first, 0.715 ± 0.025 for the second.

Going from GPCQSPSLVLTC to GKTVRERWATRP, the protein stability index rises from 0.555 ± 0.012 to 0.651 ± 0.064.

Going from PPPLPPPPPTRP to HPLPTPSPHLSP, the protein stability index rises from 0.616 ± 0.063 to 0.728 ± 0.016.

WGWGVASRCCEG and IMGLGLASAKRM are within error of each other in protein stability index: 0.72 ± 0.042 for the first, 0.677 ± 0.073 for the second.

LGQAVGAVGVEV and GASSPVEVGAAG are within error of each other in protein stability index: 0.64 ± 0.072 for the first, 0.695 ± 0.022 for the second.

AWRWGVGVGSGS and FVHEHQPRHEST are within error of each other in protein stability index: 0.735 ± 0.17 for the first, 0.677 ± 0.028 for the second.

LFGAIPRVEHAD and ARSFALLGCRRS are within error of each other in protein stability index: 0.718 ± 0.088 for the first, 0.677 ± 0.042 for the second.

First: GRRGWFESSIRR
Second: LVSGCLCRKVLV
The protein stability index of the first is higher: 0.731 ± 0.014 for the first, 0.531 ± 0.0017 for the second.

KKKRKKSKKKKK and AGWGGIWGLWVL are within error of each other in protein stability index: 0.642 ± 0.1 for the first, 0.715 ± 0.11 for the second.

LGGGCVRCVFMW and RVTMLPSSQRGI are within error of each other in protein stability index: 0.637 ± 0.039 for the first, 0.651 ± 0.033 for the second.

GKKYDEAQLRKG and PPPPPPPHHSPP are within error of each other in protein stability index: 0.709 ± 0.041 for the first, 0.722 ± 0.047 for the second.

KDGAGGDWDVGE and GGAGHGAGAVWG are within error of each other in protein stability index: 0.6948 ± 0.006 for the first, 0.71 ± 0.037 for the second.

GRGACHSRGNQP and PRIKWKIQIIKK are the same in protein stability index: 0.668 ± 0.014 for the first, 0.668 ± 0.011 for the second.

WRRLVGGVAWLW and PSTPPPRLHPSS are within error of each other in protein stability index: 0.726 ± 0.08 for the first, 0.642 ± 0.032 for the second.

Going from VGDIGLEVKLFF to HCRDCLVLIQFN, the protein stability index falls from 0.72 ± 0.0076 to 0.664 ± 0.048.

FLLLSAGERCWD and LKRGKIVDRGWY are within error of each other in protein stability index: 0.694 ± 0.085 for the first, 0.641 ± 0.082 for the second.

Compared with LLSFFLSPPSIL, HLLLGPRSPPSP is lower in protein stability index: 0.734 ± 0.02 for the first, 0.661 ± 0.022 for the second.

CVGTDVWQASSR and GGGVGGGGVEYG are within error of each other in protein stability index: 0.6 ± 0.057 for the first, 0.638 ± 0.067 for the second.

QKKNKNKIRTPN and SRYRSTSESMKV are within error of each other in protein stability index: 0.688 ± 0.012 for the first, 0.667 ± 0.038 for the second.

EVEKKKKKKNNK and LWLCLERFPCSR are within error of each other in protein stability index: 0.663 ± 0.04 for the first, 0.74 ± 0.042 for the second.

QTQSNTRIERKK and WHDLDRGSFRAV are within error of each other in protein stability index: 0.668 ± 0.057 for the first, 0.669 ± 0.023 for the second.

First: GPLNQALLHCSV
Second: LDEQIKIRIKEK
The protein stability index of the first is lower: 0.653 ± 0.021 for the first, 0.721 ± 0.046 for the second.

SRRGIRSSSAAR and LPAPGRPSPCRL are within error of each other in protein stability index: 0.714 ± 0.065 for the first, 0.809 ± 0.041 for the second.

Going from GSEVWGSPGFGG to DGSIGASPGRGL, the protein stability index falls from 0.803 ± 0.0083 to 0.695 ± 0.015.

Going from SSSPLLDPPLPH to TPRASLSATSRS, the protein stability index rises from 0.68 ± 0.017 to 0.719 ± 0.016.

KQRTRKYLNSRN and CRTPQICASCLC are within error of each other in protein stability index: 0.654 ± 0.12 for the first, 0.59 ± 0.015 for the second.

Going from PPPRPHTPPQLA to GISLTVTVRGWL, the protein stability index falls from 0.708 ± 0.019 to 0.496 ± 0.019.

Compared with GGRRHQRARLPL, ASHDIFWAGSRE is higher in protein stability index: 0.605 ± 0.018 for the first, 0.766 ± 0.092 for the second.

PHLRTRRPPLLH and SHLFPCRSSFPP are within error of each other in protein stability index: 0.694 ± 0.01 for the first, 0.656 ± 0.037 for the second.

First: APPLPPPPLDTS
Second: SVALPLRQTPLH
The protein stability index of the first is higher: 0.729 ± 0.011 for the first, 0.667 ± 0.047 for the second.

Going from SPLLPPRSPPLP to RKGSVVILGLGL, the protein stability index falls from 0.752 ± 0.032 to 0.65248 ± 0.0003.

ARSDRLPNILPY and EQDDGARMIRRV are within error of each other in protein stability index: 0.679 ± 0.071 for the first, 0.683 ± 0.027 for the second.

FDLPPCVPRARP and MGGLFGWLVFWI are within error of each other in protein stability index: 0.767 ± 0.099 for the first, 0.653 ± 0.27 for the second.

First: RVPNSYELRCFR
Second: SPSFSLLFPFLL
The protein stability index of the first is lower: 0.544 ± 0.038 for the first, 0.657 ± 0.037 for the second.

Going from GVWPVGWWCRGR to ELVGGEGIGGGL, the protein stability index falls from 0.748 ± 0.047 to 0.581 ± 0.024.

Compared with NRKGNKHEKKYE, ARTGRELVLPKG is lower in protein stability index: 0.691 ± 0.0039 for the first, 0.663 ± 0.0089 for the second.

GGGHGGVGGGMG and SKNEFKKIMKKY are within error of each other in protein stability index: 0.612 ± 0.057 for the first, 0.711 ± 0.083 for the second.

First: SPPPPLELIPSP
Second: EYQGARAAGQSL
The protein stability index of the first is lower: 0.534 ± 0.025 for the first, 0.678 ± 0.02 for the second.

SCHGGWFLHVFT and QRCWSRKGVNSL are within error of each other in protein stability index: 0.645 ± 0.018 for the first, 0.67 ± 0.025 for the second.

AGRGGSPRFVGR and DVLLRGAVQPIC are within error of each other in protein stability index: 0.657 ± 0.053 for the first, 0.659 ± 0.0098 for the second.

Compared with GGGGAAGWGAVG, GAFFPGPVLFLT is lower in protein stability index: 0.688 ± 0.015 for the first, 0.517 ± 0.013 for the second.

Going from FGLPPGNWSSGH to MYLLSFRALGSS, the protein stability index falls from 0.782 ± 0.028 to 0.54 ± 0.0098.

Going from GVRGLLAGGGVW to APFRVALPGVCG, the protein stability index falls from 0.709 ± 0.027 to 0.623 ± 0.02.

First: LFPGSHHLSRFF
Second: GFGFWRNLFYWS
The protein stability index of the first is higher: 0.7587 ± 0.005 for the first, 0.657 ± 0.048 for the second.
